# Assay results taken from patent US20200289416.
# T1: MMP-Ac2-26 PA (C16V2A2E2-GGGPQGIWGQGK-AMVSEFLKQAWFIENEEQEYVQTVK-NH2)
# T1 chain: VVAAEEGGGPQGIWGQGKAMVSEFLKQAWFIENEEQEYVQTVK
# Target: T1, MMP-Ac2-26 PA …
protein,measurement,value
human recombinant MMP2 (protein) YNFFPRKPKWDKNQITYRIIGYTPDLDPETVDDAFARAFQVWSDVTPLRFSRIHDGEADIMINFGRWEHGDGYPFDGKDGLLAHAFAPGTGVGGDSHFDDDELWTLGEGQVVRVKYGNADGEYCKFPFLFNGKEYNSCTDTGRSDGFLWCSTTYNFEKDGKYGFCPHEALFTMGGNAEGQPCKFPFRFQGTSYDSCTTEGRTDGYRWCGTTEDYDRDKKYGFCPETAMSTVGGNSEGAPCVFPFTFLGNKYESCTSAGRSDGKMWCATTANYDDDRKWGFCPDQGYSLFLVAAHEFGHAMGLEHSQDPGALMAPIYTYTKNFRLSQDDIKGIQELYGASPDIDLGTGPTPTLGPVTPEICKQDIVFDGIAQIRGEIFFFKDRFIWRTVTPRDKPMGPLLVATFWPELPEKIDAVYEAPQEEKAVFFAGNEYWIYSASTLERGYPKPLTSLGLPPDVQRVDAAFNWSKNKKTYIFAGDKFWRYNEVKKKMDPGFPKLIADAWNAIPDNLDAVVDLQGGGHSYFFKGAYYLKLENQSLKSVKFGSIKSDWLGC,"Ac2-26 release from PA nanofibers (cleavage assay, LC-MS)",The MMP-Ac2-26 PA nanofibers released Ac2-26 after 24 hours of treatment with 40 nM MMP2
